Source: the supplement of paper PMC12636428

System: Saccharomyces cerevisiae
Experiment: transcriptional activation domain activity (GFP:mCherry ratio, weighted mean of sorted bins, harmonized to initial dataset scale) (arbitrary fluorescence ratio units); higher = stronger transcriptional activation
Conditions: beta-estradiol 1 µM; induction time 4 h
Procedure, shortened: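 For this assay, yeast diploids with a GFP reporter carried barcoded protein tiles at URA3, each fused to an estradiol-inducible synthetic transcription factor. Induction was a 1:5 dilution into SC with 1 uM beta-estradiol for 4 hours at 30 °C, followed by sorting into 8 bins by GFP:mCherry ratio and barcode sequencing. Tiles under 50 reads were dropped, and activation activity was calculated as the read-weighted mean of bin median fluorescence, averaged across barcodes and linearly mapped onto the initial dataset scale.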

| Sequence | transcriptional activation domain activity |
| --- | --- |
| EKSEGANGEAGGEGSRRRASGRGRLRGRGRNGRGGRGGRAGETTDDKKEGEAT | 26100 |
| PLEYFDIKALSALIVFDEFPNYIIGLLLQSYPELVHGTFMPYIECMLFTMNPL | 61800 |
| AAATAEGAASSRQPSERERKREREREEERERGKEREREKERKQAAEASTSANE | 58800 |
| LHLFGLVLVWVSYLLFWVFLLFSFVYPDWLLALFILRIILFLFSFSVILFYFI | 47100 |
| KANSKAKLSKKDESSDESESDSEDEKPAPKANGKQVCCAVPLAIFFIALLTKY | 57400 |
| QARQSKEPAMSQKDLATKVNEKQSVINDYESGRAVPNQQVLSKLERALGVKLR | 36800 |
| MSEPPRKRAKLACVTCNARRVKCDVTDRHPCTNCAAGNVECETRESRRGKHVR | 14300 |
| RSHAGRGRSRSREKHEHHRSHHHREKRRRESEIERRDSKRAASPKSKPSENIH | 27100 |
| MMHLSIRDEQKVSLCLTIYLFIFFFFFLILFLWLEGVYLFFLLMTFFLRPYSS | 43800 |
| KQYCVRPNSGRIEPGKDVEVQILLQAMKEDPPPDAKCRDKFLVQSVAVSADKE | 47000 |
| PASNGHAEPETKPEPEAAPEPVEEKAATPAPATPAQPSPAPTPAPAAAAPSPA | 10200 |
| QLRLFQFDRLVEELLPLVHTHFIRKGIKSSMFASQWFMTLFSYRFPLSLVYRV | 66200 |
| KEREQREQREQRRKEEREREKERERERELRERERERERERQQAREEAERAAMG | 15400 |
| FILGLIFVFAFVWHERSMAACPLIPIKAMTAQATFVLVCTATGWASFSIWIYY | 60700 |
| SRLFDLQLNICLSFQVYWFRNLVDGFPLDIPPLHIASFFGLVEPLTALLKSLG | 33100 |
| MFVCTSQSFIRSMGLYGFYLTGLMMTLLVVVVSLTFIQYPTIVILTLFHCLIS | 44800 |
| TQLIELNVPMGKVGMVVDNSSDKLEIEDIVVYWSLRSRPVWLVYVRAFLKSII | 56200 |
| FLRGLVVLLWSLDSLHLAFIVHGLYYYLIQNYGNYFSLFKPVWSFVGQILVSS | 57300 |
| MIMYKIYFYTHFRLFFYICFYVHVEFSKPILLHVVLKLIKQLVFLSTYHLFLL | 47900 |
| EFILHTMPVVAIKDTHAWNGNTPVELGLLGFWNLIVVWLKLLIPWRFFRLWAL | 63800 |
| LSAFCCTLVDRYLLSTEYSHFSICLVRSVLNWVARGISSLLLLHFFLLLVMYE | 50600 |

| Sequence | transcriptional activation domain activity |
| --- | --- |
| DIIPDHYKHKPISLYDPRKAPLLNQYRLIVPRSRNIIEVCQFIILLLLYCLSM | 78100 |
| CVFRLGFLFIFLVSYSIAWEWFFLFSLWHLCLLPLDIISIFLLFLGPLLWRSF | 31500 |
| KQYCVRPNSGRIEPGGEVDVQILLQAMKEDPPADAKCRDKFLVQSVLVTADKE | 50100 |
| APVAEPVPVASTSSEVKKDEEEADEDEEDDNVASIEAKIAAARSRLSATHCLF | 10900 |
| GATSTPAATGTTGGLFGSGGTTTGGFGSTSTPAAGGFGSTSTGGGLFGAKPAT | 21400 |
| NGHGTHCSGTVAGKKYGVAKKANVYAVKVLRSNGSGTMSDVVKGVEEAVKMHN | 37500 |
| LLQSSKEDIPFINANLAFPDDNSTNIQLQPFSESQSQNKFDYDMFFRDSSKEG | 80700 |
| KARKRTRERKKEKEGRARTKGEGDRYEGRKFEISGTVEVKRERCEGTRRTKPK | 9070 |
| ALNITYLFLGTYGWEYFGSCSVECALVCGRLAFRLSLIPYVLGRTSLLIYFIL | 41000 |
| GETVFYKGQGKKRQEIRAPLRRGMALLHRHGHECLLHEGTQVLKGIKYVLRSD | 54600 |
| LLRSRAYDDPAVFRIISALFQVPMRHKKNSVRGLLCVVWRVITWVYFQPRLPW | 54600 |
| SKPSSNGRSDCSKHSTGKDASNKKNNRGKSKKAKKKTAAAKANTTDNESDSSD | 33600 |
| MISPFHFQSLFFILFLLFFLCAWCSGWAGLRFFTPHLVSIFFLFMDWQLDLVG | 48500 |
| QSPPPAKKAKTAAGGRGKKVKPEPESGSEAEAKPEPVASKRGRVKKPAKAEQE | 14800 |
| WLPFPESLGSSYRMPGIEPYVDFVMGRILAKKLPELLDSCQILMLRWKCLCFI | 63200 |
| YKCVGLSPDCKTAFFMNVTAFLVCPLANFESGKIPKTDLILLSKSSRECKYKA | 29600 |
| TDVYYALRPGYQDDEVWDLLPLPTFPQLHMLTLNMLHISFQFPNWWTLWFKWI | 68900 |
| MISSAKLTLFAFFRSMQMQSISLGRNLKAFILRCVLLWPRILRSFRKVWSWYF | 18200 |
| AWPLHLTLGKIPKSIRYQDYHRACRVLAYFPIIHVKGGIIRPAWWWSHCKKLI | 36300 |
| LWYIGSFVTNGLVNVVGVWKICKLWSIWVRVAFTYMFMCFILFRALALHRIFI | 59200 |
| SSKISCIHHVALKPSSGRYKRVTIIFNIIKAKRHLVTNSLRLMGLLLAIALYI | 53000 |

| Sequence | transcriptional activation domain activity |
| --- | --- |
| EDGDVDMGEADDKPAEPEAEIKTEEVETAAAPEPETEPKSTPAVPAAAAAAAA | 24500 |
| VNDNSTGSTDSTGSTGNKNKKNNNNSDDVLPFISESPFDMNQVTNFFSPGSTG | 38600 |
| LHEQLESLMLRRLKRDVLTSLPTKSERILRVEMSALQTHFYKNILTKNFQALV | 74100 |
| RILATQFFYVAAFTFLVFHSAFRAARITLPLYQHPLRIAIPVTLTQMGLHATA | 64600 |
| MVQNWEFFVFFFLPFNSFFSFFLPFCEVYMCAVCGLWCGSPGKLLGLFYFWFV | 36600 |
| KPTNQTEFDWQVFQQQAFLQQQLAQHNLQAYLSSLNTDTMTNRSPSKSSSIST | 66300 |
| MFKSFLGHSDQNTFFFFVLLLLLLCCHISLRAFFIFLSWIQLLYVLQWDECDK | 47800 |
| MTTNRDKAFFFFFNCERPIFNFFFCPFFLFFYIPFYFPYPYFFSFSYFSFLYL | 78200 |
| LSLYRLSFPASFSLFSSFPSCLVAFPFPLPLPLPLPPSCSPFLLLLLLLLFFS | 51900 |
| LCRLWGAWGLFTFGLGVLLSAINMRMVLFYRVFITVNLTARSNSKIVNFFRKF | 51100 |
| KKEKSPSEDEAEKPKSPKSPFAKLRATVKGKSPKTEKPAEEPKAEAAPEAKTE | 24100 |
| LYECLKYMLFTFAGSTHTNYMAYLLETIINLELESSPGLKEALLLCLLINLTG | 48700 |
| GSWMILRILLHQLLDSVQYIPEYKDIAALRYRGPTYYFQELQKAFYHVLDAVP | 65200 |
| KLAKKEPKAAAKPKTEKAKVEKKPAAKKATTTKAKPAAPKAKAAAKPKAATTK | 23800 |
| AILLLSAYVLFLVVWLIFFSRVILLIPFFPGTPYNLAMPVVLLGLFYCFVFTW | 32700 |
| WGFRVMSQLPTFWYRTEYFWIDYPHWDMKPELKRYYLMQMAYWLQQLIVLVLG | 92400 |
| MAPETADKPSRRRHIKSRSGCKNCKKRKVKCGEERPSCRNCSRRGSLCDLADE | 20400 |
| ESERHSRRRKSVKGKGKAKEVQKKRASKDKTSKRKGKGEKRKRGEEEGRSANK | 60200 |
| KLRGYGFVCQMLQLPIVVLQRTKWVRGRETLNNVCFWASMILGLSLVRCLFPL | 50200 |
| SCMVYSIHNTTILILSFSPSPLNFFFFSSWLLFIFFFFLFLFLFLFLFLFLFL | 39900 |
| MDEVGLSSMRYYHFSIFNVLIVFLLGTTFLNTIIDLVYTPTSILTLLANSLPQ | 51800 |

| Sequence | transcriptional activation domain activity |
| --- | --- |
| FSLIKGLGSLVPLNKLRQESLLEEEDENNTEPSDFRTIVEEFQSEYNISDILS | 45000 |
| SSSSSSREDGEASDASSSSRDSRRRRRRSTSRDKRPAAESKAATEPAAAKPRN | 30000 |
| SLPSTTPAGAPPTDAAKPAGGLFGNTSAQASTGSSGLFGNAAKPATTSASSAQ | 16100 |
| ILSPTLFLLFSSSPLPLLFYPHFPFLVLTSYFLLLLYSSVSLFIAFLHSLFLI | 41300 |
| HSILGFRFPRLRIMRCITCSSMRPDLRWLTFPIFENLEVFITSLYLTRKYWIQ | 58300 |
| CEMQFAKDTVVRRYCLLLECLELLPVSAIKAVTRMLHRIVVKCGCVAMFFKMS | 70400 |
| MAFCSIPFYSPPPPQFRFISTFSPFPRFIIGPLFHPLLARKLFDFLLIFIVSF | 62700 |
| MPQSLTCRSASIIATQDCFDVIIFRLRFLLDIARGTLLLFRDHGRALTPFGRP | 51100 |
| SWFIHFYILSLSCTVFWAVQFVIDGTVLEVIIKNQLARCTSSMTLSQVLLAWF | 50300 |
| SLDHTSLWIRRSVLSFSIEQIKKVFFQLFSTWYIFIFQLPYFPEWLWKNKTYP | 49100 |
| FFFFVIFSLFHLPFACIFRFFPNDLFACYLYSPFFFPIDFCPFALFPPFFLSF | 59500 |
| ISICLPELRLFMYCKFLYWLEVMSLLNDLEHVKQMLKDVLGCGKMQLKVFKFT | 62000 |
| RSSKPSSRFLVLTKQKVYILVTRMVQNAPQTTIERSVGISSISSASVSTLQDD | 29600 |
| MIIGMWLFCHVGSSFSVYHMFPLLYFRLLLCYLVFWSCFLLTFSKVSFSFLFA | 54400 |
| FLYLLSRYLGLAVHITNTVFAILVGHYQVIPVHLCRIGLVYQGAVLFVMLGIL | 46900 |
| RSTMKIVEEEDQRRRAIRKTCCALCGREEGVSLRCKRCKTVLYCSPSVRGCQL | 33200 |
| ESDGGGEESGEGEERRKRRKKERLERRERKLKAKEEKKKKKSRGDGEAATKSQ | 25100 |
| GEGEEDDVNGNKKRASDRSSSPKSKRSRKDEEEKEKEKKPTVKKPRQTKPKTT | 31300 |
| IFRVTLLLVYFWTSSIIIGVTQYIGTPLYLISKDHYYRFMAFTKQCMTLLVLS | 65400 |
| MTGRHLWGIGVLFLPLLFFLLDFPFFSFSFLLMCLCEILSIFFWLHFSLGREG | 44900 |
